In PMC10760972:
Read-outs that look alike come from different tables or passages of the source.

How the values were obtained:
AURKB = AURKB (UniProt Q96GD4); assay: co-precipitation from cells, immunoblot; conditions: reference: NSFL1C wild type; sites S140

**Q.** With “NSFL1C (from UniProt Q9UNZ2) NSFL1C-S140A” as the substance, how does the “binding against the reference” value (AURKB) read?
**A.** Its value is “weaker”.

**Q.** With NSFL1C: NSFL1C-S140A as the substance, how does the other (phosphorylation at S140) read?
**A.** The other was “abolishes”.

**Q.** For AURKB: AURKB-3KR (K31R/K56R/K85R), which enzymatic_activity (ubiquitination at K31) is on record?
**A.** Its enzymatic_activity is “decreases”.

**Q.** And the localisation_or_trafficking (ubiquitination at K31)?
**A.** Its localisation_or_trafficking is “decreases”.

**Q.** And the enzymatic_activity (ubiquitination at K56)?
**A.** The enzymatic_activity was “decreases”.

**Q.** What about the localisation_or_trafficking (ubiquitination at K56) of the same substance?
**A.** The localisation_or_trafficking was “decreases”.

**Q.** And the enzymatic_activity (ubiquitination at K85)?
**A.** Its enzymatic_activity is “decreases”.

**Q.** What about the localisation_or_trafficking (ubiquitination at K85) of the same substance?
**A.** The localisation_or_trafficking was “decreases”.
